In paper doi:10.1101/2024.04.15.589559 one finds reduction in Ca2+ (100 μM)-evoked fusion of Syt1^WT/VAMP2 vesicles with Syt7^DA in the t-SNARE bilayer, 1:800 to 1:200 protein-to-lipid (~30% to ~70%) data, which are given here for 1 substance.

This test deals with pre-formed CPX-SNARE complex (Complexin 1 with Syntaxin1A, SNAP25B and VAMP2) (human | rat | mouse) (UniProt O14810).
pre-formed CPX-SNARE complex (Complexin 1 with Syntaxin1A, SNAP25B and VAMP2) (human | rat | mouse), sequence (O14810 whole entry, chain 1 of 4): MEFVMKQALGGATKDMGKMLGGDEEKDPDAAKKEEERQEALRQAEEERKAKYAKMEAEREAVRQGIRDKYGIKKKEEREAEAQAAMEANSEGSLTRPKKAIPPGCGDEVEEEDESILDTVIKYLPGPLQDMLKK
pre-formed CPX-SNARE complex (Complexin 1 with Syntaxin1A, SNAP25B and VAMP2) (human | rat | mouse), sequence (P32851 whole entry, chain 2 of 4, further chain): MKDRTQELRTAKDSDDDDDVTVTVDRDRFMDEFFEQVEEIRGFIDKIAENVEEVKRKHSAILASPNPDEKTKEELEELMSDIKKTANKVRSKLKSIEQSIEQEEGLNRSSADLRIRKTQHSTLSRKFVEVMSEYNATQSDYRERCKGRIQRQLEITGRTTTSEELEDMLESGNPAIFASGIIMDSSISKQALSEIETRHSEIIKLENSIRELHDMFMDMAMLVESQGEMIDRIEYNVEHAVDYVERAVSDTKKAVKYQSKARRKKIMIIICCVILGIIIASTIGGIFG
pre-formed CPX-SNARE complex (Complexin 1 with Syntaxin1A, SNAP25B and VAMP2) (human | rat | mouse), sequence (P60879 whole entry, chain 3 of 4, further chain): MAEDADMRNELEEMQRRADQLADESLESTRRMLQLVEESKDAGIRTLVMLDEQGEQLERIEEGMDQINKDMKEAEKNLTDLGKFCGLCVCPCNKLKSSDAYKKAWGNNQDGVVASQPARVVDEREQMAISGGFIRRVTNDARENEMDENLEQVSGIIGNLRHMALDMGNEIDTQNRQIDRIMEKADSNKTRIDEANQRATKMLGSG
pre-formed CPX-SNARE complex (Complexin 1 with Syntaxin1A, SNAP25B and VAMP2) (human | rat | mouse), sequence (P63027 whole entry, chain 4 of 4, further chain): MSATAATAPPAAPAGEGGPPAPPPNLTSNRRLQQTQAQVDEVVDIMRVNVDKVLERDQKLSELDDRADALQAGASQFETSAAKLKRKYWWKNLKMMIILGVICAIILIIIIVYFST

“Syt7^DA (SUMO-Syt1^TMD-Syt7 with D225A, D227A, D233A, D357A, D359A) (from UniProt Q62747 17-403)” yielded a reduction in Ca2+ (100 μM)-evoked fusion of Syt1^WT/VAMP2 vesicles with Syt7^DA in the t-SNARE bilayer, 1:800 to 1:200 protein-to-lipid (~30% to ~70%) of 70%.
